This is an account of results in paper PMC11369174, “Proteome-scale characterisation of motif-based interactome rewiring by disease mutations” (Molecular Systems Biology, 2024).

One may read the Kd as the equilibrium constant for the complex coming apart.

The target of test [1] is E3 ubiquitin-protein ligase NEDD4 (NEDD4) WW2 domain, GST-tagged (human). The test is described as follows: fluorescence polarisation; displacement: unlabelled peptide titrated onto a complex of FITC-labelled peptide (10 nM) and protein domain (1-2x KD); 50 mM sodium phosphate buffer pH 7.4 (CASK: plus 100 mM NaCl); KD calculated from IC50; technical triplets.
Chain of E3 ubiquitin-protein ligase NEDD4 (NEDD4) WW2 domain, GST-tagged (human) (P46934 whole entry, the tested form may be a part): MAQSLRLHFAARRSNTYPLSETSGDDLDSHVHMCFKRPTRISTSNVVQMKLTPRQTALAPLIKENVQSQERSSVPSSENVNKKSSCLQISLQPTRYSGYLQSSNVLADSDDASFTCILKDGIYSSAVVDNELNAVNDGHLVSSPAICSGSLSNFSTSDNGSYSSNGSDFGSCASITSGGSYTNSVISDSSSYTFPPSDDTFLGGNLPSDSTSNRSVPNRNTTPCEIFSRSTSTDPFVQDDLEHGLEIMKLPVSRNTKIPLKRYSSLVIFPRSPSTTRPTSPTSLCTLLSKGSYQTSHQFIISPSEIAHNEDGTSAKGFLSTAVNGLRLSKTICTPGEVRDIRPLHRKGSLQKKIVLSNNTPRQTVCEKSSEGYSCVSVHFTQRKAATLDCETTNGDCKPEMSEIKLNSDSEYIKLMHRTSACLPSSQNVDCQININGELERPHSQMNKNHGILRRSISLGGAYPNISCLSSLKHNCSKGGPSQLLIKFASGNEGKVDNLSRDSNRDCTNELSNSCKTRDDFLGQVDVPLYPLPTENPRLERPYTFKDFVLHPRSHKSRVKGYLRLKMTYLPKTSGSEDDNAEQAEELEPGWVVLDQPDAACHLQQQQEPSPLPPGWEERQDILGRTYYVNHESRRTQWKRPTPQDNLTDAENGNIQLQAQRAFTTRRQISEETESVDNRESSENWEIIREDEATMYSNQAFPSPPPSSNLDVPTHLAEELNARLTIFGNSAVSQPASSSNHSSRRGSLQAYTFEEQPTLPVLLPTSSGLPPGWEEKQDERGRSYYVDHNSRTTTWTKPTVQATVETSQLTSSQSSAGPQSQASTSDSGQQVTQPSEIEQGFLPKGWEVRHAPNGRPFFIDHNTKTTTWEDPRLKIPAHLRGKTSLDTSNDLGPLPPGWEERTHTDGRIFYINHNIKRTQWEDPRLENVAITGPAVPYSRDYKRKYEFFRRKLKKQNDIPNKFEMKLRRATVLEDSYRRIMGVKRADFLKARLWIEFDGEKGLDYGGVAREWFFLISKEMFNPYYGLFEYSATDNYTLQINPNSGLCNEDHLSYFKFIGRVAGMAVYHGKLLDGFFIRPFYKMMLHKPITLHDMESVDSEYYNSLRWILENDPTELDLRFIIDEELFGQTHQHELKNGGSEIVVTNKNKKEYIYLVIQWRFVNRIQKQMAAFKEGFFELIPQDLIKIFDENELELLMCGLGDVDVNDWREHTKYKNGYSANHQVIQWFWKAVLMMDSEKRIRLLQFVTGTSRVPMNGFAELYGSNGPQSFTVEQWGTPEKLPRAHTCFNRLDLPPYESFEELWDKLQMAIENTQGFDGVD
The target of test [2] is GABARAPL1 ATG8 (human). The description is as above.
For test [3], the target named is USP7 MATH/ TRAF (human). Described as above.
For test [4], the target named is importin subunit α-3 (KPNA4) ARM domain (human). Nature of the test: fluorescence polarisation; displacement as a1, with a FITC-labelled probe sampling the minor pocket of the KPNA4 ARM domain.
Chain of importin subunit α-3 (KPNA4) ARM domain (human) (O00629 whole entry, the tested form may be a part): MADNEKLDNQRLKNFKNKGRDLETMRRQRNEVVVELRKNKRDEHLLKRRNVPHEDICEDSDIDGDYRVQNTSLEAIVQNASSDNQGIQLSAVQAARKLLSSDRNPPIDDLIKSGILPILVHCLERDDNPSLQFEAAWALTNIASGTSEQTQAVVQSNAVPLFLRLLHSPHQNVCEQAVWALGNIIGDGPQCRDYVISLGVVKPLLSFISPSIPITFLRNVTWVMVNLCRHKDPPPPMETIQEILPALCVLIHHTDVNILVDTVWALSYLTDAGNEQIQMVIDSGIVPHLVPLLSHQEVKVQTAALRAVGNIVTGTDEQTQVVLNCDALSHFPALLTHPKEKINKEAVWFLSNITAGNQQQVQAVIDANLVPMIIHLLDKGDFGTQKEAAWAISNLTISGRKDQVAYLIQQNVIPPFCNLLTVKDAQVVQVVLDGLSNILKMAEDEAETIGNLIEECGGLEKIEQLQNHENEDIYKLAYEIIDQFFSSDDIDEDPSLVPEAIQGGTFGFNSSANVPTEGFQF
In test [5] the target is MAP1LC3A ATG8 (human). The test is described as follows: fluorescence polarisation; displacement: unlabelled peptide titrated onto a complex of FITC-labelled peptide (10 nM) and protein domain (1-2x KD); 50 mM sodium phosphate buffer pH 7.4 (CASK: plus 100 mM NaCl); KD calculated from IC50; technical triplets.
Test [6] has as its target importin subunit α-3 (KPNA4) ARM domain (human). Nature of the test: fluorescence polarisation; displacement as a1, with a FITC-labelled probe sampling the major pocket of the ARM domain (KPNA4, KPNA7).
The target of test [7] is FITC-STK11_mut. Nature of the test: fluorescence polarisation; saturation binding: dilution series of the protein domain added to 10 nM FITC-labelled peptide; 50 mM sodium phosphate pH 7.4, 0.05% Tween (protein dialysed in 50 mM sodium phosphate with 1 mM DTT; CASK kinase domain with 100 mM NaCl in addition); quadratic fit; technical triplets.

With PIPGTPPPNYDSLRLQ [SCNN1B_(611-626) wild-type peptide], in test [1], the Kd is 39 µM. Consider DKDEWQSLDQNEDAFE [BUB1_(486-501) wild-type peptide], for which, in test [2], the Kd was 5.5 µM. For the molecule YISSSSTSTMPNSSQSS [CHK2 38-53 wild-type peptide], the Kd in test [3] is 3.1 µM. The molecule PELWVAHRTAQHLSAT [ZNF526_(152-167) K160T peptide] returned a KD, minor pocket in test [4] of 395 µM.

With PIPGTPPRNYDSLRLQ [SCNN1B_(611-626) P618R peptide], the Kd in test [1] is 603 µM. As to DKDEWQFLDQNEDAFE [BUB1_(486-501) S492F peptide], the Kd in test [2] is below 0.3 µM.

As to QTKWEPLQQVDTSTRT [KRT1 209-224 L214P peptide], the Kd in test [5] was 580 µM. YLLDGPPNPERAKLSS [CREBBP 5-19 K13E peptide] yielded a KD, major pocket in test [6] of 860 µM. Consider PIPGTRPPNYDSLRLQ [SCNN1B_(611-626) P616R peptide], for which the Kd in test [1] was 80 µM. As to YISSSSTSTMPNSSKSS [CHK2 38-53 Q51K peptide], the Kd in test [3] was 4.7 µM. Consider QTKWELLQQVDTSTRT [KRT1 209-224 wild-type peptide], for which, in test [5], the Kd was 55 µM.

B1: ADP-ribosylation factor-binding protein GGA1 (GGA1) VHS domain (domain or fragment)
chain: ATNPLNKELDWASINGFCEQLNEDFEGPPLATRLLAHKIQSPQEWEAIQALTVLETCMKSCGKRFHDEVGKFRFLNELIKVVSPKYLGSRTSEKVKNKILELLYSWTVGLPEEVKIAEAYQMLKKQGIVKS
For the molecule B1, in test [7], the Kd was determined as 14.1 µM.
